Paper PMC11791078, “RECQ4-MUS81 interaction contributes to telomere maintenance with implications to Rothmund-Thomson syndrome” (Nature Communications, 2025)

T1: GST-MUS81-EME1 complex (UniProt Q96NY9 1-551; Q96AY2 1-570)
T1 construct: MUS81 subunit of the complex encoded by pGEX-6P-1-MUS81-HisEME1; EME1 subunit of the complex encoded by pGEX-6P-1-MUS81-HisEME1; Plasmid was a gift from Dr. Stephen West and Dr. Curtis Harris; the construct is not described further; source: E. coli Rossetta (DE3) pLysS, purified (Glutathione Sepharose, Heparin, MonoS)
T1 sequence (looked up) 1: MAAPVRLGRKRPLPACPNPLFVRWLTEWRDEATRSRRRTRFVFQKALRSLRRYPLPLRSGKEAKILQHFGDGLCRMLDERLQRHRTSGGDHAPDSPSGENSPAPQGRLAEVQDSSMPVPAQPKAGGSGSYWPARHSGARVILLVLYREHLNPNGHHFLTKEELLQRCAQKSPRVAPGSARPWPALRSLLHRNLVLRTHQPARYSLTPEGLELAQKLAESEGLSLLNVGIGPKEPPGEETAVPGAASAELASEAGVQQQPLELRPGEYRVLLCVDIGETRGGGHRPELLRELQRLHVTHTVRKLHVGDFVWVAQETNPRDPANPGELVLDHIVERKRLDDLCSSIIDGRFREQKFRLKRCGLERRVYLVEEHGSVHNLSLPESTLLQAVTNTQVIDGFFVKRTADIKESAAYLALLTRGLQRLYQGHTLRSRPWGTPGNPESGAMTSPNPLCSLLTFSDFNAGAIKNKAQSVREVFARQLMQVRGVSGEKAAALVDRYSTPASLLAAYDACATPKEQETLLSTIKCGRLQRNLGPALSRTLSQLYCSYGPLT
T1 sequence (looked up) 2: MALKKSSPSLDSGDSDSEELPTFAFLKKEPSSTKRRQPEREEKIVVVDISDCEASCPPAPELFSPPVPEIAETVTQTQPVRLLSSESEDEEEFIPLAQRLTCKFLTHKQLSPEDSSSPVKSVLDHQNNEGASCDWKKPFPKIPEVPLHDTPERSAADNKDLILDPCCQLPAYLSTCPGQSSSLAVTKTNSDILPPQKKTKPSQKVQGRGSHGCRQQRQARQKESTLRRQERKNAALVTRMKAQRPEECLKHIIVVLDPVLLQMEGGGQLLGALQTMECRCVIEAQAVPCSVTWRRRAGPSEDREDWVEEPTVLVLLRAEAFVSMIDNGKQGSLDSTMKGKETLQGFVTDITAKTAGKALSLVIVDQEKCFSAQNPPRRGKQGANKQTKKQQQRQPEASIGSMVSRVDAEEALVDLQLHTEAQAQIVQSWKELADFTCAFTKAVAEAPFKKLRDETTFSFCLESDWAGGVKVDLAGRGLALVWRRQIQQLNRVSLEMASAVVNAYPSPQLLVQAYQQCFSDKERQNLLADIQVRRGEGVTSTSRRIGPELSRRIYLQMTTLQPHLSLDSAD


Experiments:
GST-MUS81-EME1 complex [1] = biological target: GST-MUS81-EME1 complex (UniProt Q96NY9)
GST-MUS81-EME1 complex [2] = biological target: T1, GST-MUS81-EME1 complex; experiment: pull-down; purified GST-MUS81-EME1, GST-MUS81 or GST-MUS81 fragments (5 µg) incubated with MBP-tagged RECQ4 fragments (5 µg) and Glutathione Sepharose 4 Fast Flow beads in 1X K buffer with 150 mM KCl, 0.01% NP40, 1 mM DTT, 30 min, 4 °C; flow-through and bound fractions on SDS-PAGE, Coomassie blue; conditions: both partners purified

Binder | stimulation of MUS81-EME1 (0.5 nM) cleavage of 3'-flap DNA (6 nM), 20 min at 37 °C; RECQ4 5, 25 and 50 nM (GST-MUS81-EME1 complex [1]) | binding result (GST-MUS81-EME1 complex [2])
RECQ4 (WT), full-length (natural protein) MERLRDVRERLQAWERAFRRQRGRRPSQDDVEAAPEETRALYREYRTLKRTTGQAGGGLRSSESLPAAAEEAPEPRCWGPHLNRAATKSPQSTPGRSRQGSVPDYGQRLKANLKGTLQAGPALGRRPWPLGRASSKASTPKPPGTGPVPSFAEKVSDEPPQLPEPQPRPGRLQHLQASLSQRLGSLDPGWLQRCHSEVPDFLGAPKACRPDLGSEESQLLIPGESAVLGPGAGSQGPEASAFQEVSIRVGSPQPSSSGGEKRRWNEEPWESPAQVQQESSQAGPPSEGAGAVAVEEDPPGEPVQAQPPQPCSSPSNPRYHGLSPSSQARAGKAEGTAPLHIFPRLARHDRGNYVRLNMKQKHYVRGRALRSRLLRKQAWKQKWRKKGECFGGGGATVTTKESCFLNEQFDHWAAQCPRPASEEDTDAVGPEPLVPSPQPVPEVPSLDPTVLPLYSLGPSGQLAETPAEVFQALEQLGHQAFRPGQERAVMRILSGISTLLVLPTGAGKSLCYQLPALLYSRRSPCLTLVVSPLLSLMDDQVSGLPPCLKAACIHSGMTRKQRESVLQKIRAAQVHVLMLTPEALVGAGGLPPAAQLPPVAFACIDEAHCLSQWSHNFRPCYLRVCKVLRERMGVHCFLGLTATATRRTASDVAQHLAVAEEPDLHGPAPVPTNLHLSVSMDRDTDQALLTLLQGKRFQNLDSIIIYCNRREDTERIAALLRTCLHAAWVPGSGGRAPKTTAEAYHAGMCSRERRRVQRAFMQGQLRVVVATVAFGMGLDRPDVRAVLHLGLPPSFESYVQAVGRAGRDGQPAHCHLFLQPQGEDLRELRRHVHADSTDFLAVKRLVQRVFPACTCTCTRPPSEQEGAVGGERPVPKYPPQEAEQLSHQAAPGPRRVCMGHERALPIQLTVQALDMPEEAIETLLCYLELHPHHWLELLATTYTHCRLNCPGGPAQLQALAHRCPPLAVCLAQQLPEDPGQGSSSVEFDMVKLVDSMGWELASVRRALCQLQWDHEPRTGVRRGTGVLVEFSELAFHLRSPGDLTAEEKDQICDFLYGRVQARERQALARLRRTFQAFHSVAFPSCGPCLEQQDEERSTRLKDLLGRYFEEEEGQEPGGMEDAQGPEPGQARLQDWEDQVRCDIRQFLSLRPEEKFSSRAVARIFHGIGSPCYPAQVYGQDRRFWRKYLHLSFHALVGLATEELLQVAR | > 10 fold | 
MBP-RECQ4 (1-492) (domain or fragment, UniProt O94761 1-492, looked up, cloned into pMAL-c2x from pET32a-RECQ4-9XHis; source: E. coli BL21(DE3) pLysS, purified (His-Select nickel, amylose)) MERLRDVRERLQAWERAFRRQRGRRPSQDDVEAAPEETRALYREYRTLKRTTGQAGGGLRSSESLPAAAEEAPEPRCWGPHLNRAATKSPQSTPGRSRQGSVPDYGQRLKANLKGTLQAGPALGRRPWPLGRASSKASTPKPPGTGPVPSFAEKVSDEPPQLPEPQPRPGRLQHLQASLSQRLGSLDPGWLQRCHSEVPDFLGAPKACRPDLGSEESQLLIPGESAVLGPGAGSQGPEASAFQEVSIRVGSPQPSSSGGEKRRWNEEPWESPAQVQQESSQAGPPSEGAGAVAVEEDPPGEPVQAQPPQPCSSPSNPRYHGLSPSSQARAGKAEGTAPLHIFPRLARHDRGNYVRLNMKQKHYVRGRALRSRLLRKQAWKQKWRKKGECFGGGGATVTTKESCFLNEQFDHWAAQCPRPASEEDTDAVGPEPLVPSPQPVPEVPSLDPTVLPLYSLGPSGQLAETPAEVFQALEQLGHQAFRPGQERAVMRI |  | binds
MBP-RECQ4 (1-400) (domain or fragment, UniProt O94761 1-400, looked up, RECQ4 residues 1-400; cloned into pMAL-c2x from pET32a-RECQ4-9XHis; also called fragment (1-400); RECQ4 truncation (1-400 aa); source: E. coli BL21(DE3) pLysS, purified (His-Select nickel, amylose, MonoS)) MERLRDVRERLQAWERAFRRQRGRRPSQDDVEAAPEETRALYREYRTLKRTTGQAGGGLRSSESLPAAAEEAPEPRCWGPHLNRAATKSPQSTPGRSRQGSVPDYGQRLKANLKGTLQAGPALGRRPWPLGRASSKASTPKPPGTGPVPSFAEKVSDEPPQLPEPQPRPGRLQHLQASLSQRLGSLDPGWLQRCHSEVPDFLGAPKACRPDLGSEESQLLIPGESAVLGPGAGSQGPEASAFQEVSIRVGSPQPSSSGGEKRRWNEEPWESPAQVQQESSQAGPPSEGAGAVAVEEDPPGEPVQAQPPQPCSSPSNPRYHGLSPSSQARAGKAEGTAPLHIFPRLARHDRGNYVRLNMKQKHYVRGRALRSRLLRKQAWKQKWRKKGECFGGGGATVTTK |  | binds
